Experimental data from the supplement of paper PMC10065799, “High-throughput profiling of sequence recognition by tyrosine kinases and SH2 domains using bacterial peptide display” (eLife, 2023).

Key:
EPHB1 = EPHB1 (UniProt P54762); assay: phosphorylation enrichment, bacterial display (enrichment ratio); higher = better substrate or ligand; peptides without Tyr show the background
Hck = Hck (UniProt P08631); assay: as above
Fer (mouse) = assay: as above
EPHB2 = EPHB2 (UniProt P29323); assay: as above
FGFR1 = FGFR1 (UniProt P11362); assay: as above
Fyn = Fyn (UniProt P06241); assay: as above
Fes = Fes (UniProt P07332); assay: as above
Jak2 = Jak2 (UniProt O60674); assay: as above
FGFR3 = FGFR3 (UniProt P22607); assay: as above
c-Abl (mouse) = assay: as above
c-Src = assay: as above
AncSZ = assay: as above
MERTK = MERTK (UniProt Q12866); assay: as above
c-Src SH2 = assay: SH2 binding enrichment of the phosphorylated peptide, bacterial display (enrichment ratio); higher = better substrate or ligand; peptides without Tyr show the background
Grb2 SH2 = Grb2 SH2 (UniProt P62993); assay: as above
SHP2-C SH2 = assay: as above
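Wherever SH2 binding enrichment of the phosphorylated peptide, bacterial display is given: peptide library displayed on the E. coli surface as eCPX fusions, selected cells deep-sequenced, score is each peptide's frequency after selection divided by its frequency in the input.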
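Wherever phosphorylation enrichment, bacterial display is given: 11-residue human phosphosite peptides and single-mutation variants displayed on the E. coli surface, counted by deep sequencing, each peptide's frequency after selection divided by its frequency in the unselected input library; frequency after pTyr selection over input frequency; kinase dosed for 20-30% of maximal phosphorylation in three min.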

Chain of Fyn (P06241 whole entry, looked up): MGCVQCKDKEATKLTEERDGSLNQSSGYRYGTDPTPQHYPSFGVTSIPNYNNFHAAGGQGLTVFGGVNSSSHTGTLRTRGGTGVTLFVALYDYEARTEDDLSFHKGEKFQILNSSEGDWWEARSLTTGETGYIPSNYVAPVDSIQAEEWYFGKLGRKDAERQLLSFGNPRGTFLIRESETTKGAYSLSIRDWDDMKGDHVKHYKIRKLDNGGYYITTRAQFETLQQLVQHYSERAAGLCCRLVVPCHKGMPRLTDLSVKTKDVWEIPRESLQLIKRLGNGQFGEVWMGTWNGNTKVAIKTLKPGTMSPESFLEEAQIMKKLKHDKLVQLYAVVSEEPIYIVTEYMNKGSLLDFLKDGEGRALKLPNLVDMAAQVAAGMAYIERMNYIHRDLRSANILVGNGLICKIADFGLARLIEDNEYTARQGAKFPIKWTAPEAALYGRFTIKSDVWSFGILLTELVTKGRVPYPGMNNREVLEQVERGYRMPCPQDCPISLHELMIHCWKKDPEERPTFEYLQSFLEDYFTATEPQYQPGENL
Chain of FGFR1 (P11362 whole entry, looked up): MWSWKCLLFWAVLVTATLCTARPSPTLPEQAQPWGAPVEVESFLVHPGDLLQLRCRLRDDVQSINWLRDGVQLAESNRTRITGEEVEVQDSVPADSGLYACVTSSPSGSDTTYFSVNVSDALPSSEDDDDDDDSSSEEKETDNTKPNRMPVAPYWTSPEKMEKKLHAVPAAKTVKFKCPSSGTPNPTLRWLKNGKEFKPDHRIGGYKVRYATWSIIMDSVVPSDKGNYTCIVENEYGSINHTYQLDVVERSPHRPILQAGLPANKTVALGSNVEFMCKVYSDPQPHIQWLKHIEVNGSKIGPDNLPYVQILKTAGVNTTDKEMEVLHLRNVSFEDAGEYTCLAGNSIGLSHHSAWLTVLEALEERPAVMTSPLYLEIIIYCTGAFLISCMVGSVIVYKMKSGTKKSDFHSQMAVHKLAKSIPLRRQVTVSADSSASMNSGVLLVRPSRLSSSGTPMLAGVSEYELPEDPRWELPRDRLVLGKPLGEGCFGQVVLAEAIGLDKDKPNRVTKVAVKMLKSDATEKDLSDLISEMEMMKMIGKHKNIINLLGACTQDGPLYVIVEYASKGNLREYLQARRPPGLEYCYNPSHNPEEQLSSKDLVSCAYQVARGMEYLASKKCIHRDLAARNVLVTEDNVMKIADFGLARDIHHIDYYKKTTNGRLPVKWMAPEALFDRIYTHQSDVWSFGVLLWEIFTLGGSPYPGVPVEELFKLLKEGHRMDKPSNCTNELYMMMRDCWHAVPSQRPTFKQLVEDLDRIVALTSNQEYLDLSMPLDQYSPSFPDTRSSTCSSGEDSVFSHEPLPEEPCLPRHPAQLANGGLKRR
Chain of FGFR3 (P22607 whole entry, looked up): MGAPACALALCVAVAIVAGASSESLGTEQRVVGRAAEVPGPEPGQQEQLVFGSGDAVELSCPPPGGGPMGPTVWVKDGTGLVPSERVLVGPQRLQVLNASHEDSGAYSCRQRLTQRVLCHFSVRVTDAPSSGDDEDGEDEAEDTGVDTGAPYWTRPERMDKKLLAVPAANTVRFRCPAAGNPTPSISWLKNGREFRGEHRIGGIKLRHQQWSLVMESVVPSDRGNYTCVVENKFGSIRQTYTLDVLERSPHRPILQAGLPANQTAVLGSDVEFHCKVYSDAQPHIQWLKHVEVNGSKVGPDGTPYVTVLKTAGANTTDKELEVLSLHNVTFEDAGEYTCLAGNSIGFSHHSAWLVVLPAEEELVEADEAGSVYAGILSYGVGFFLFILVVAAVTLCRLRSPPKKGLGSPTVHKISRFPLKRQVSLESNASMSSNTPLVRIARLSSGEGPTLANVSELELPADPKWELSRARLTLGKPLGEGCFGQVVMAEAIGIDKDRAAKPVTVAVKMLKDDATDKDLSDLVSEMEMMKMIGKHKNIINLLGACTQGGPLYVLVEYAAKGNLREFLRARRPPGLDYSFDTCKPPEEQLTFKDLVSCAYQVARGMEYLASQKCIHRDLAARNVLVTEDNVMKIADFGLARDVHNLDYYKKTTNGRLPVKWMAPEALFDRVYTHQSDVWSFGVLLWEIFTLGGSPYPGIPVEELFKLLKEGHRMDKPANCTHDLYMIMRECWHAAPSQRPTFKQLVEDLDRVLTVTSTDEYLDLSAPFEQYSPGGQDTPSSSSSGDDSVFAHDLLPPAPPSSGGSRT
Chain of MERTK (Q12866 whole entry, looked up): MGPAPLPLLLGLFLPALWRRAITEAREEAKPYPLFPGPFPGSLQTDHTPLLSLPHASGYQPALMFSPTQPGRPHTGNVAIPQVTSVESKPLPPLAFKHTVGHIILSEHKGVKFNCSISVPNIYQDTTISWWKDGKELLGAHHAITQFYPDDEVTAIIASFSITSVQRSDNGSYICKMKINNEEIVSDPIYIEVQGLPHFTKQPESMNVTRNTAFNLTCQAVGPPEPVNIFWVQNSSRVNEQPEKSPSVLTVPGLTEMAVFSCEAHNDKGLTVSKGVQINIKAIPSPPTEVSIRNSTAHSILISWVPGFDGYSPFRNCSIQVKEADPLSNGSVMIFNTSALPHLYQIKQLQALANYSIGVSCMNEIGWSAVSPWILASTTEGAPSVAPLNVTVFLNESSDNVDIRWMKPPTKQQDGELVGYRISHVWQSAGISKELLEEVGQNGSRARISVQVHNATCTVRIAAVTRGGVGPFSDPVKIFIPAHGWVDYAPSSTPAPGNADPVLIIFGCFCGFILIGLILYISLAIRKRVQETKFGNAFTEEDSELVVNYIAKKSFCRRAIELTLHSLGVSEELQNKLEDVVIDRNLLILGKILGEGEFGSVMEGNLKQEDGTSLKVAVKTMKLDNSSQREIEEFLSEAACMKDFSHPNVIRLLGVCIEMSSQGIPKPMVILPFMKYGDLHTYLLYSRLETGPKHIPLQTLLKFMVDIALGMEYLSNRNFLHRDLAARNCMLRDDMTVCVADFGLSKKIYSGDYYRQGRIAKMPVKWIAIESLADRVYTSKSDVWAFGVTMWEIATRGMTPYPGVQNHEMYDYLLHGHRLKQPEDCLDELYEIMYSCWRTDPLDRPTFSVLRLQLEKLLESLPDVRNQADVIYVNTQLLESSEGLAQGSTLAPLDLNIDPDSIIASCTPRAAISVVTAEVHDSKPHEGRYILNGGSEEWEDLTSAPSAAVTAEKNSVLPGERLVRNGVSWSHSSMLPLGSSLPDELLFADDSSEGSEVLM
Chain of EPHB2 (P29323 whole entry, looked up): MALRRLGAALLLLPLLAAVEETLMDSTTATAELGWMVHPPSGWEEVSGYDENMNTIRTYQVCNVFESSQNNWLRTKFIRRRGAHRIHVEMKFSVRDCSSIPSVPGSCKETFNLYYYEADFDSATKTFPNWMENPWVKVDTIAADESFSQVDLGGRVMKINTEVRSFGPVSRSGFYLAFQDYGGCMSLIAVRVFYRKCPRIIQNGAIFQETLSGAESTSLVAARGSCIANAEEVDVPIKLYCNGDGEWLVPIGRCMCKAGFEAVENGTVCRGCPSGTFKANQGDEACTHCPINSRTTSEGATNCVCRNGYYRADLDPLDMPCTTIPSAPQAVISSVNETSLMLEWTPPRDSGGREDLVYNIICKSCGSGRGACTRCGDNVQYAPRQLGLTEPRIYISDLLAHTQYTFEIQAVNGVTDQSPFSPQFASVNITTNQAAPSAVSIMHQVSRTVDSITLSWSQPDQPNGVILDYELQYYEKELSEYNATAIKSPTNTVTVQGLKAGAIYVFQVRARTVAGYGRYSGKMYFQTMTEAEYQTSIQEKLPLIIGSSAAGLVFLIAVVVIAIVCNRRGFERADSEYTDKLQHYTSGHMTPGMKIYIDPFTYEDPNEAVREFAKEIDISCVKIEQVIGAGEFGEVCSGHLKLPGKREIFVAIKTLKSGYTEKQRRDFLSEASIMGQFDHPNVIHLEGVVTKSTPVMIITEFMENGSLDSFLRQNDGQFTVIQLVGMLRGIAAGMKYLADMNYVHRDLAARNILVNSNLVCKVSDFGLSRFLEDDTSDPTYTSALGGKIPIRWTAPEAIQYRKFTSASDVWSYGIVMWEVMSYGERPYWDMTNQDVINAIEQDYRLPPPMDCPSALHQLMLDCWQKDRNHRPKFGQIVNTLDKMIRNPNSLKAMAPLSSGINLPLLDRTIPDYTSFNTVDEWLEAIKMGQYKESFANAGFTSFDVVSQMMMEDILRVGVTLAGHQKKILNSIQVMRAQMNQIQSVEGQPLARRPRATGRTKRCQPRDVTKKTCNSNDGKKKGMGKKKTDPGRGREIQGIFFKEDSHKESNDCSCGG
Chain of Grb2 SH2 (P62993 whole entry, looked up): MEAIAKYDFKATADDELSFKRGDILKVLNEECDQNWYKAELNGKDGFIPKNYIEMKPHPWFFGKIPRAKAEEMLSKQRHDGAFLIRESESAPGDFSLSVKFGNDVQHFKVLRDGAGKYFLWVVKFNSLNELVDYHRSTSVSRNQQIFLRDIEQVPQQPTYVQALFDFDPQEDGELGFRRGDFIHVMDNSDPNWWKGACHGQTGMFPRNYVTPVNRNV
Chain of Hck (P08631 whole entry, looked up): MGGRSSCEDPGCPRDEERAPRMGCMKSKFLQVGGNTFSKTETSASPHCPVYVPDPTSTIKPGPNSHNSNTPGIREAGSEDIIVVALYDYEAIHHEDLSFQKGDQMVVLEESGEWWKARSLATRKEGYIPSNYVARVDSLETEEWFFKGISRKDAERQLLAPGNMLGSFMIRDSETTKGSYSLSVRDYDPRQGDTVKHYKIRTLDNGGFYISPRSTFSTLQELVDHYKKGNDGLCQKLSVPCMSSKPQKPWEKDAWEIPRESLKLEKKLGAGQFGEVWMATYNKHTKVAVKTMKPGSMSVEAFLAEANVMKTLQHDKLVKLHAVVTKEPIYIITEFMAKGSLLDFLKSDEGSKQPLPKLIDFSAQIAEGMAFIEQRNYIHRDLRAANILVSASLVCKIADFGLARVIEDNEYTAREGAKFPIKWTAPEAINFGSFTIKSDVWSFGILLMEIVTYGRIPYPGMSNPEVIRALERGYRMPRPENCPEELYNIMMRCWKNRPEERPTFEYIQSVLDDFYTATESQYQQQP

| Sequence | phosphorylation enrichment (EPHB1) | phosphorylation enrichment (Hck) | phosphorylation enrichment (Fer (mouse)) | phosphorylation enrichment (EPHB2) | phosphorylation enrichment (FGFR1) | phosphorylation enrichment (Fyn) | phosphorylation enrichment (Fes) | phosphorylation enrichment (Jak2) | phosphorylation enrichment (FGFR3) | phosphorylation enrichment (c-Abl (mouse)) | phosphorylation enrichment (c-Src) | phosphorylation enrichment (AncSZ) | phosphorylation enrichment (MERTK) | SH2 binding enrichment (c-Src SH2) | SH2 binding enrichment (Grb2 SH2) | SH2 binding enrichment (SHP2-C SH2) |
| --- | --- | --- | --- | --- | --- | --- | --- | --- | --- | --- | --- | --- | --- | --- | --- | --- |
| QSVEPYTKQQL [STAT3_Y640] | 0.614 | 0.641 | 0.543 | 0.695 | 0.553 | 0.536 | 0.783 | 0.755 | 0.558 | 0.81 | 0.626 | 0.715 | 0.709 | 0.528 | 0.978 | 0.649 |
| NIFSFYLSRDP [CTSD_Y232] | 0.551 | 0.461 | 0.528 | 0.506 | 0.348 | 0.4 | 1.14 | 0.951 | 0.697 | 0.619 | 0.409 | 0.85 | 0.333 | 1.09 | 1.52 | 1.64 |
| DMDATYRPMFS [JUP_Y701_YF] | 0.52 | 0.762 | 0.465 | 0.448 | 0.498 | 0.592 | 0.99 | 0.752 | 0.649 | 0.763 | 0.624 | 0.831 | 0.461 | 0.472 | 0.762 | 0.886 |
| AEFGLYRAMVR [VSX2_Y222_G223R_YF] | 0.731 | 4.12 | 0.431 | 0.595 | 0.484 | 0.821 | 0.779 | 0.726 | 0.673 | 1.48 | 0.855 | 0.753 | 0.843 | 0.633 | 0.89 | 0.789 |
| GMTLSYLFREL [NDUFS8_Y74_P79L] | 0.514 | 0.487 | 0.431 | 0.55 | 0.53 | 0.451 | 0.905 | 0.758 | 0.604 | 0.603 | 0.383 | 0.888 | 0.447 | 1.24 | 1.64 | 1.47 |
| LRFKQYLRNPP [SHC1_Y315] | 0.562 | 1.04 | 0.623 | 1.8 | 0.865 | 0.551 | 1.11 | 1.17 | 0.767 | 0.847 | 0.642 | 0.957 | 0.564 | 0.477 | 0.786 | 0.591 |
| ILDEAYVMASV [EGFR_Y764] | 0.598 | 0.515 | 0.538 | 0.559 | 0.641 | 0.505 | 1.33 | 1.07 | 0.763 | 0.692 | 0.612 | 1.16 | 0.409 | 0.356 | 0.708 | 0.632 |
| HCHEGYVLHGA [SVEP1_Y2921_I2922V] | 0.915 | 0.786 | 0.911 | 0.807 | 1.11 | 0.789 | 1.3 | 0.943 | 1.13 | 0.78 | 0.527 | 1.28 | 0.474 | 0.826 | 0.957 | 1.36 |
| PEVRRCVLPLN [RPE65_Y368_Y368C] | 0.673 | 0.48 | 0.644 | 0.487 | 0.495 | 0.366 | 1.14 | 0.927 | 0.774 | 0.871 | 0.586 | 0.906 | 0.458 | 0.548 | 0.926 | 0.633 |
| FIGCIYLFLTK [GARS1_Y414_R412C_YF] | 0.251 | 0.485 | 0.456 | 0.49 | 0.458 | 0.399 | 0.772 | 0.792 | 0.573 | 0.748 | 0.314 | 0.803 | 0.415 | 1.33 | 1.86 | 1.71 |
| FSAPNCCYRCG [PPP2CA_Y265_Y265C] | 0.671 | 0.55 | 0.547 | 0.676 | 0.489 | 0.518 | 1.21 | 1.02 | 0.76 | 0.833 | 0.5 | 1 | 0.505 | 0.582 | 0.925 | 0.529 |
| SCTFTCLLGDR [ETHE1_Y38_Y38C] | 0.45 | 0.414 | 0.458 | 0.536 | 0.488 | 0.458 | 1.03 | 0.84 | 0.669 | 0.737 | 0.387 | 0.916 | 0.465 | 0.945 | 1.01 | 0.98 |
| RDMNAYIRPSP [MMAA_Y207] | 0.444 | 0.8 | 1.19 | 1.02 | 0.804 | 1.01 | 1.24 | 1.57 | 1.02 | 1.32 | 0.971 | 1.03 | 1.02 | 0.581 | 0.804 | 0.693 |
| QMRLRYLAAEE [CEP120_Y884] | 0.741 | 0.776 | 0.563 | 0.643 | 0.931 | 0.845 | 1.41 | 1.3 | 0.874 | 0.916 | 0.647 | 1.11 | 0.423 | 0.445 | 0.664 | 0.982 |
| EGDGVYTLNDE [HP_Y125_N129D] | 0.643 | 1.81 | 0.555 | 0.727 | 0.453 | 4.51 | 1.23 | 1.21 | 0.838 | 0.8 | 3.79 | 1.18 | 0.482 | 0.532 | 0.872 | 0.445 |
| HLGNQYVNVMN [SLC3A1_Y461_R456H] | 0.565 | 0.85 | 0.603 | 0.477 | 0.735 | 0.483 | 0.902 | 0.618 | 0.643 | 0.764 | 0.471 | 0.905 | 0.29 | 4 | 20.1 | 2.63 |
| PFFASYPPSPD [GDAP2_Y491_T489A_YF] | 0.99 | 1.11 | 0.435 | 0.865 | 0.747 | 0.784 | 1.23 | 1.02 | 0.839 | 0.859 | 0.488 | 1.03 | 0.769 | 0.658 | 1.01 | 0.847 |

| Sequence | phosphorylation enrichment (EPHB1) | phosphorylation enrichment (Hck) | phosphorylation enrichment (Fer (mouse)) | phosphorylation enrichment (EPHB2) | phosphorylation enrichment (FGFR1) | phosphorylation enrichment (Fyn) | phosphorylation enrichment (Fes) | phosphorylation enrichment (Jak2) | phosphorylation enrichment (FGFR3) | phosphorylation enrichment (c-Abl (mouse)) | phosphorylation enrichment (c-Src) | phosphorylation enrichment (AncSZ) | phosphorylation enrichment (MERTK) | SH2 binding enrichment (c-Src SH2) | SH2 binding enrichment (Grb2 SH2) | SH2 binding enrichment (SHP2-C SH2) |
| --- | --- | --- | --- | --- | --- | --- | --- | --- | --- | --- | --- | --- | --- | --- | --- | --- |
| LSKDLYLISQM [LARP4_Y141] | 1.59 | 0.836 | 0.918 | 1.29 | 0.933 | 0.828 | 1.63 | 1.28 | 1.41 | 1.06 | 0.639 | 1.78 | 0.703 | 0.413 | 0.912 | 1.08 |
| SYSGEYGGGGG [ZG16_Y30] | 0.398 | 0.525 | 0.444 | 0.452 | 0.53 | 0.485 | 0.685 | 0.4 | 0.552 | 0.433 | 0.385 | 0.604 | 0.439 | 0.495 | 0.784 | 0.635 |
| FSALDYKIFYY [WDPCP_Y210_L205F] | 0.928 | 0.473 | 0.529 | 0.588 | 1.23 | 0.613 | 1.45 | 1.4 | 1.18 | 1.2 | 0.763 | 1.38 | 0.462 | 1.27 | 1.22 | 1.17 |
| GIATGYLVLKE [DNMT3B_Y588] | 0.511 | 0.511 | 0.376 | 0.558 | 0.464 | 0.385 | 0.77 | 0.836 | 0.611 | 0.533 | 0.4 | 0.737 | 0.357 | 0.717 | 0.744 | 2.28 |
| VQVAYYTVMMN [SPATA17_Y84_M86V] | 2.88 | 1.69 | 1.97 | 1.47 | 5.77 | 1.7 | 1.71 | 3.06 | 4.41 | 1.01 | 2.03 | 1.79 | 4.41 | 1.93 | 1.63 | 0.952 |
| FGVTLYPNSRE [MEP1A_Y472] | 0.675 | 0.599 | 0.398 | 0.68 | 0.556 | 0.432 | 1.17 | 0.92 | 0.766 | 0.995 | 0.541 | 1.02 | 0.714 | 0.638 | 0.891 | 0.858 |
| QFKDKYLAKHN [CASK_Y712_YF] | 0.53 | 0.384 | 0.433 | 0.268 | 0.383 | 0.266 | 0.467 | 0.788 | 0.298 | 0.35 | 0.34 | 0.519 | 0.403 | 0.914 | 0.83 | 1.3 |
| DTNIAYCLHPR [POMT1_Y581_W582C] | 0.549 | 0.431 | 0.505 | 0.532 | 0.471 | 0.541 | 1.06 | 0.754 | 0.691 | 0.753 | 0.568 | 0.831 | 0.695 | 0.609 | 0.712 | 0.744 |
| GRVYVYHLSEQ [ITGAE_Y551_R552H] | 0.645 | 0.602 | 0.531 | 0.548 | 0.559 | 0.835 | 1.13 | 0.994 | 0.712 | 0.646 | 0.799 | 1.03 | 0.386 | 0.907 | 1.01 | 6.94 |
| LITSVYGCSRQ [TMPRSS6_Y290] | 0.989 | 1.83 | 0.716 | 1 | 1.04 | 1.57 | 1.25 | 1.24 | 1.21 | 1.27 | 1.7 | 1.39 | 0.545 | 0.511 | 0.863 | 0.628 |
| FQQLFYLLQIN [IQGAP2_Y890_T894I_YF] | 0.82 | 0.617 | 0.658 | 0.815 | 0.648 | 0.541 | 1.76 | 1.47 | 1.01 | 1.06 | 0.639 | 1.51 | 0.611 | 0.889 | 1.14 | 1.1 |
| SMVVPYEPPEV [TP53_Y220_V216M] | 0.592 | 0.407 | 0.617 | 0.625 | 0.45 | 0.462 | 1.33 | 1.3 | 0.81 | 0.852 | 0.526 | 1.11 | 0.465 | 0.769 | 0.892 | 0.659 |
| CTNELYMMMRD [FGFR1_Y730] | 1.86 | 1.47 | 0.693 | 1.09 | 0.935 | 0.705 | 1.38 | 1.35 | 1.28 | 0.898 | 1.15 | 1.34 | 2 | 0.427 | 0.633 | 0.502 |
| IKKFKYRIEEH [GJA1_Y137_G138R] | 0.392 | 0.336 | 0.361 | 0.389 | 0.402 | 0.398 | 0.83 | 0.717 | 0.495 | 0.449 | 0.363 | 0.653 | 0.345 | 0.557 | 0.847 | 0.77 |
| GIFEDYVEGLR [MYL6_Y89_T85I_YF] | 0.787 | 0.484 | 0.607 | 0.7 | 0.567 | 0.7 | 1.17 | 1.22 | 0.793 | 0.857 | 0.536 | 1.25 | 0.393 | 0.462 | 0.866 | 0.645 |
| SSYDIYHLSRE [KIR3DL2_Y253] | 2.42 | 12.2 | 1.74 | 3.54 | 2.73 | 13 | 0.851 | 0.724 | 2.01 | 1.18 | 9.33 | 1.27 | 6.05 | 0.73 | 0.842 | 0.816 |
